According to publication PMC2494995, “The central proline rich region of POB1/REPS2 plays a regulatory role in epidermal growth factor receptor endocytosis by binding to 14-3-3 and SH3 domain-containing proteins” (BMC Biochemistry, 2008):

What was measured:
14-3-3 sigma = 14-3-3 sigma (UniProt P31947); test: SPOT peptide array, GST-14-3-3 sigma overlay
[1] = molecular target: POB1 phospho-peptide 347KTHSRASpSLDLNKVF361 (human); test: peptide or protein array; SPOT peptides on a cellulose membrane; GST fusion proteins (10 micrograms/ml) in PBS/BSA 5%; anti-GST antibody, peroxidase labeled secondary antibody, chemiluminescence in arbitrary units
[2] = molecular target: POB1 fifteenmer peptide 338-352 with Pro345 replaced by alanine (human); test: as above
[3] = molecular target: POB1 fifteenmer peptide 338-352 with Pro343 replaced by alanine (human); test: as above
[4] = molecular target: T1, GST-SH3 of Amphiphysin II (UniProt O00499 520-593); test: pull-down; GST or GST fusion proteins (100 μg) adsorbed to glutathione-sepharose 4B beads, two hours at 4°C with 1 mg of HEK293 cellular extract in JS lysis buffer (50 mM Hepes, 150 mM NaCl, 1% Triton-X100); washed three times in ice-cold PBS; Western blot
T1 construct: Amphiphysin II, SH3 domain; cloned into the SalI and BglII sites of pYEX (modified pGEX-2TK); also called AmphIISH3; GST-Amphiphysin II SH3; source: expressed in bacteria; on glutathione-Sepharose 4B beads (pull-down) or purified (peptide arrays)
T1 sequence (looked up): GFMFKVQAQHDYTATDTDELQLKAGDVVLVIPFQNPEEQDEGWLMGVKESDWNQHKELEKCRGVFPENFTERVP

[5] = molecular target: GST-SH3 carboxy-terminal of Grb2; test: as above
[6] = molecular target: POB1 fifteenmer peptide 338-352 with proline 339 replaced by alanine (human); test: peptide or protein array; SPOT peptides on a cellulose membrane; GST fusion proteins (10 micrograms/ml) in PBS/BSA 5%; anti-GST antibody, peroxidase labeled secondary antibody, chemiluminescence in arbitrary units
[7] = molecular target: T1, GST-SH3 of Amphiphysin II; test: as above; details: both partners purified

With “POB1/REPS2 15-mer centred on Ser322 (from UniProt Q8NFH8) pS322 peptide (No. 196)” the “other: spot intensity” value (14-3-3 sigma; reference: unphosphorylated peptide (No. 232), sites S322) was “none in both; reference 1400”.

Molecule “GST-14-3-3 sigma (from UniProt P31947 1-248) (natural protein)” has a signal intensity (arbitrary units (a.u.)) [1] of 8500.

In the case of “GST-SH3 carboxy-terminal of Grb2 (domain or fragment)”, the percent of the binding to the unmutated peptide [2] is reported as 30% and the percent of the binding to the unmutated peptide [3] is reported as 30%.

“POB1/REPS2 347-361 (from UniProt Q8NFH8) pS354 peptide” was tested, and the “other: spot intensity” value (14-3-3 sigma; reference: unphosphorylated peptide (No. 238), sites S354) was “gained; reference 991”.

For “Myc-tagged POB1 (full length) (natural protein)”, the percent of the input bound [4] was 25% and the percent of the input bound [5] was 4%.

B1: GST-SH3 of Amphiphysin II (domain or fragment)
chain: GFMFKVQAQHDYTATDTDELQLKAGDVVLVIPFQNPEEQDEGWLMGVKESDWNQHKELEKCRGVFPENFTERVP
B1 showed a percent of the binding to the unmutated peptide [6] of 31%.

B2: POB1 fifteenmer peptide 338PPTPPPRPQKTHSRA352 (peptide)
peptide: PPTPPPRPQKTHSRA
notes: numbers count on: isoform 2, Q8NFH8-2; source: SPOT synthesis on a cellulose membrane
B2: binds [7].
